Laboratory results taken from PMC12057046 (2025).

B1: GST-tagged USP8 MIT domain (1-142) [human] / Girdin 1192-1207 peptide, cellulose-bound (SPOT array) [human] (parent complex)
chain 1: MPAVASVPKELYLSSSLKDLNKKTEVKPEKISTKSYVHSALKIFKTAEECRLDRDEERAYVLYMKYVTVYNLIKKRPDFKQQQDYFHSILGPGNIKKAVEEAERLSESLKLRYEEAEVRKKLEEKDRQEEAQRLQQKRQETG
chain 2: EVEHRDLEDRYNQLLK
B2: GST-tagged USP8 MIT domain (1-142) [human] / DNAJB6 118-130 peptide, cellulose-bound (SPOT array) [not stated] (parent complex)
chain 1: B1 chain 1
chain 2: PFEDFFGNRRGPR
B3: GST-tagged USP8 MIT domain (1-142) [human] / Cadherin-1 863-877 peptide, cellulose-bound (SPOT array) [not stated] (parent complex)
chain 1: B1 chain 1
chain 2: NEWGNRFKKLADMYG
B4: GST-tagged USP8 MIT domain (1-142) [human] / DBP 116-131 peptide, cellulose-bound (SPOT array) [human] (parent complex)
chain 1: B1 chain 1
chain 2: YVDLDAFLLEHGLPPS

Variants of: B1
Assay: SPOT array alanine scanning; read off a plot

| Variant | screen value [%] |
| --- | --- |
| chain 2 H4A | ~65 |
| chain 2 D6A | ~40 |
| chain 2 D9A | ~58 |
| chain 2 E3A | ~80 |
| chain 2 E1A | ~50 |
| chain 2 L7A | ~-100 |
| chain 2 E8A | ~-72 |
| chain 2 K16A | ~120 |

Second part, the variant after the results:

| screen value [%] | Variant |
| --- | --- |
| ~-92 | chain 2 R10A |
| ~48 | chain 2 R5A |
| ~28 | chain 2 Q13A |
| ~-81 | chain 2 L15A |
| ~-100 | chain 2 Y11A |
| ~-37 | chain 2 N12A |
| ~69 | chain 2 V2A |
| ~-94 | chain 2 L14A |

Variants of: B2
Assay: SPOT array alanine scanning; read off a plot

| Variant | screen value [%] |
| --- | --- |
| chain 2 D4A | ~-88 |
| chain 2 F5A | ~-63 |
| chain 2 G11A | ~-39 |
| chain 2 G7A | ~-40 |
| chain 2 F2A | ~10 |
| chain 2 F6A | ~-67 |
| chain 2 E3A | ~-46 |

Now from value to variant:

| screen value [%] | Variant |
| --- | --- |
| ~-17 | chain 2 P12A |
| ~20 | chain 2 R13A |
| ~-29 | chain 2 R10A |
| ~30 | chain 2 P1A |
| ~-48 | chain 2 N8A |
| ~-19 | chain 2 R9A |

Variants of: B3
Assay: SPOT array alanine scanning; read off a plot

| Variant | screen value [%] |
| --- | --- |
| chain 2 K8A | ~-65 |
| chain 2 G4A | ~-39 |
| chain 2 F7A | ~-100 |
| chain 2 D12A | ~-56 |
| chain 2 A11G | ~-32 |
| chain 2 K9A | ~-70 |
| chain 2 E2A | ~-57 |
| chain 2 G15A | ~-57 |

Now from value to variant:

| screen value [%] | Variant |
| --- | --- |
| ~-62 | chain 2 L10A |
| ~-34 | chain 2 N5A |
| ~-100 | chain 2 W3A |
| ~-9 | chain 2 N1A |
| ~-98 | chain 2 R6A |
| ~-44 | chain 2 Y14A |
| ~-22 | chain 2 M13A |

Variants of: B4
Assay: SPOT array alanine scanning; read off a plot

| Variant | screen value [%] |
| --- | --- |
| chain 2 D3A | ~-84 |
| chain 2 E10A | ~-94 |
| chain 2 D5A | ~-100 |
| chain 2 L4A | ~-52 |
| chain 2 L9A | ~98 |
| chain 2 L8A | ~-20 |
| chain 2 A6G | ~-38 |
| chain 2 G12A | ~-87 |
| chain 2 H11A | ~-79 |
| chain 2 F7A | ~-72 |

Results, then the variant that gave them:

| screen value [%] | Variant |
| --- | --- |
| ~98 | chain 2 V2A |
| ~-5 | chain 2 P14A |
| ~110 | chain 2 Y1A |
| ~12 | chain 2 S16A |
| ~-22 | chain 2 L13A |
| ~19 | chain 2 P15A |
